Assay results: paper PMC3900572 (The Journal of neuroscience : the official journal of the …, 2010)

Biological target: RIBEYE(B)-MBP (rat, UniProt Q9EQH5-2 564-988)
Test: pull-down

- Kd: 2720 nM
B1: GST-tagged full-length bovine GCAP2 (amino acids 1–204) (natural protein, UniProt P51177 1-204, looked up)
chain: MGQQFSWEEAEENGAVGAADAAQLQEWYKKFLEECPSGTLFMHEFKRFFKVPDNEEATQYVEAMFRAFDTNGDNTIDFLEYVAALNLVLRGTLEHKLKWTFKIYDKDRNGCIDRQELLDIVESIYKLKKACSVEVEAEQQGKLLTPEEVVDRIFLLVDENGDGQLSLNEFVEGARRDKWVMKMLQMDLNPSSWISQQRRKSAMF
